Experimental data: patent US20040014707A1

Target: PA specific receptor on A549 human lung epithelial cells

With EGFP-PA32 fusion protein as the substance, how does the fold signal over non-specific EGFP binding read?
The fold signal over non-specific EGFP binding was 4 fold.
